From US10029000B2, “Uses of IL-12 in hematopoiesis” (University of Southern California, priority 2003, dated 2018)
“Also recorded” adds a separate entry of the source.

Experiments:
[1] = system: bone marrow cells; experiment: BrdU incorporation assay; type: in vivo, mice; settings: 24 hours post IL-12 administration (10 ng/mouse); control 8%
Description: It is believed that cells at S phase are more resistant to radiation. Both Brd-U incoperation and cell cycling analysis were performed to determine if IL-12 can stimulate bone marrow cell proliferation. In IL-12 treated mice, there are more bone marrow cells in S phase compared with control animals (12% vs 10%, p<0.05). Furthermore, there are more BrdU positive cells in IL-12 treated bone marrow compared with control animals (17% vs 8%, p<0.05).
24 hours post IL-12 administration (10 ng/mouse), bone marrow cells were isolated for BrdU incooperation assay (FIG. 7A).
For the BrdU assay, IL-12 (10 ng/mouse) or PBS was intravenously injected into mice. 21 hours after injection, mice were i.p. injected with 5-Bromo-2′-deoxyuridine (BrdU from Sigma) at 50 mg/kg dosage. 3 hours after BrdU injection, mice were sacrificed and whole bone marrow cells were isolated from femurs and treated with lysis buffer to destroy red blood cells. Bone marrow cells were dispersed on a slide by cytospin for the proliferation assay using BrdU immunohistochemistry system kit purchased from Oncogene Research Products (Boston, Mass.)

[2] = system: lethally irradiated mice; experiment: Radioprotection assay: survival of mice after total body lethal irradiation; type: in vivo, mice (C57BL/6J); settings: for animals with long-term survival (more than one year): 100 ng/mouse (5 ug/Kg)
Description: Mice received recombinant murine IL-12 (100 ng/mouse (which is about 5 ug/kg on average), intravenous injection) before (24 hours) or after (1 hour) lethal dose radiation (1000 rad). Mice in control group received equal volume of PBS buffer. Survival rate were analyzed by Kaplan-Meier method and p value was calculated using Log Rank Test.
To determine the minimum effective radioprotective dose of IL-12, different dose of IL-112 were administered to lethally irradiated animals before (24 hours before) or post (within one hour) lethal dose ionizing radiation.
IL-12 was administrated to mice at different doses 24 hours before radiation to determine if there is a dose dependent relationship between the concentration of IL-12 administration and survival from lethal irradiation.
To further explore the relationship of IL-12 hematopoietic rescue effect as it may relate to the time of administration, IL-12 was administrated to lethally irradiated animals at different time before and after the radiation. The following time points were tested: −48, −36, −24, and −12 hours before radiation, or +1, +12, +24, and +36 hours post radiation.
A study was conducted to determine if the radioprotective effect of IL-12 administration is specific and INF- ? independent. […] Also, an assessment was made to determine if there was a synergistic effect between GM-CSF and IL-12.
Mice were provided with acid water for one week before the radioprotection assay. Cytokines, diluted in phosphate buffered saline (PBS), pH 7.4, were intravenously injected into mice before or after total body lethal irradiation (TBI) at the specified times. Control group mice were injected with PBS buffer. For TBI, mice were either exposed twice to ionizing irradiation ( ? -ray from Cesium 137) at 500 rad dose with a 3 hour interval, or one time at a dose of 1000 rad in a Gammacell 40 machine from Atomic Energy of Canada LTD (Kanafa, Ontario, Canada). The ? -ray exposure rate is 1 Gy/min. […] After irradiation, mice were given water containing antibiotics. For the survival curve, the Kaplan-Meier method was used. Each experiment was repeated three or more times.

[3] = system: short-term hematopoietic stem cells (ST-HSCs); experiment: Colony forming units spleen day 12 assay (CFU-S12); type: in vivo, mice
Description: To determine the bone marrow cell subsets that are protected by IL-12 administration for the rescue phenomena, CFC and CFU-S12 assay were performed at different time post lethal dose radiation. Bone marrow cells were recovered from IL-12 treated or control animals immediately (day 0), or at day 7, 9, 10, 12, 14 and 21 post radiation for CFC and CFU-S12 assay. If progenitor cells are protected from IL-12 treatment (IL-12 was administered in this study at 24 hours before radiation), CFC and CFU-S12 colonies should be detected when cells were removed at day 0. However, bone marrow cells isolated at day 0, 7 post radiation give rise no CFC nor CFU-S12 colonies in both IL-12 treated and control animals. At day 10 post radiation, the bone marrow cells isolated from IL-12 treated mice start to give rise of CFU-S12 but no detectable CFC, which start to appear from IL-112 treated bone marrow isolated 12 days post radiation and fully recovered from bone marrow cells isolated 14 days post radiation, as shown in FIGS. 5A and 5B. […] The CFU-S12 colony forming cells and CFC cells at day 10 and day 14 post radiation may be derived from long-term repopulating stem cells rescued by IL-12 treatment. […]
For the CFU-spleen12 assay, 2×10^5 bone marrow cells as donors were transplanted into recipient mice which received lethal irradiation. […] Spleen colonies were counted.

[4] = cytokine given 1 hour post lethal dose radiation

B1: IL-12: Recombinant murine interleukin 12, heterodimeric cytokine (p35+p40), purchased from R&D Systems or PeproTech (protein, UniProt P43431 23-215; P43432 23-335, looked up)
Interleukin-12 subunit alpha: RVIPVSGPARCLSQSRNLLKTTDDMVKTAREKLKHYSCTAEDIDHEDITRDQTSTLKTCLPLELHKNESCLATRETSSTTRGSCLPPQKTSLMMTLCLGSIYEDLKMYQTEFQAINAALQNHNHQQIILDKGMLVAIDELMQSLNHNGETLRQKPPVGEADPYRVKMKLCILLHAFSTRVVTINRVMGYLSSA
Interleukin-12 subunit beta: MWELEKDVYVVEVDWTPDAPGETVNLTCDTPEEDDITWTSDQRHGVIGSGKTLTITVKEFLDAGQYTCHKGGETLSHSHLLLHKKENGIWSTEILKNFKNKTFLKCEAPNYSGRFTCSWLVQRNMDLKFNIKSSSSSPDSRAVTCGMASLSAEKVTLDQRDYEKYSVSCQEDVTCPTAEETLPIELALEARQQNKYENYSTSFFIRDIIKPDPPKNLQMKPLKNSQVEVSWEYPDSWSTPHSYFSLKFFVRIQRKKEKMKETEEGCNQKGAFLVEKTSTEVQCKGGNVCVQAQDRYYNSSCSKWACVPCRVRS
- BrdU positive cells in bone marrow [1]: 17%
- animals with long-term survival (more than one year) ([2]; 24 hours before lethal radiation): 95%
- animals with long-term survival (more than one year) ([2]; post lethal radiation): 75%
- survival difference versus control (Kaplan-Meier, Log Rank Test) ([2]; 100 ng/mouse i.v., 24 hours before or 1 hour after 1000 rad, p<0.001): statistically significant; also recorded: significant better survival
- Survives (30 days) ([2]; IL-12 dose 5 ng/mouse, 24 hours before radiation, 5 mice): 0
- Survival rate (%) ([2]; IL-12 dose 5 ng/mouse, 24 hours before radiation, 30 days): 0%
- Survives (30 days) ([2]; IL-12 dose 10 ng/mouse, 24 hours before radiation, 5 mice): 0
- Survival rate (%) ([2]; IL-12 dose 10 ng/mouse, 24 hours before radiation, 30 days): 0%
- Survives (30 days) ([2]; IL-12 dose 25 ng/mouse, 24 hours before radiation, 5 mice): 2
- Survival rate (%) ([2]; IL-12 dose 25 ng/mouse, 24 hours before radiation, 30 days): 40%
- Survives (30 days) ([2]; IL-12 dose 50 ng/mouse, 24 hours before radiation, 5 mice): 3
- Survival rate (%) ([2]; IL-12 dose 50 ng/mouse, 24 hours before radiation, 30 days): 60%
- Survives (30 days) ([2]; IL-12 dose 100 ng/mouse, 24 hours before radiation, 5 mice): 4
- Survival rate (%) ([2]; IL-12 dose 100 ng/mouse, 24 hours before radiation, 30 days): 80%
- Survives (30 days) ([2]; IL-12 dose 200 ng/mouse, 24 hours before radiation, 5 mice): 3
- Survival rate (%) ([2]; IL-12 dose 200 ng/mouse, 24 hours before radiation, 30 days): 60%
- Survival rate (%) [2, 4]: 80%
- radioprotective effect [2, 4]: only cytokine tested that can protect mice from lethal dose radiation
- Survives ([2]; cytokine given 1 hour post lethal dose radiation, 4-5 mice per group): 4
- survival at higher dose ([2]; higher dose (up to 50 ug/kg) compared with 5 ug/kg): did not yield greater survival
- Survival rate (%) ([2]; injection 1 hr after lethal irradiation): 80%
- Survives ([2]; injection 1 hr after lethal irradiation, 5 mice): 4
- Survival rate (%) ([2]; injection 12 hrs after lethal irradiation): 0%
- Survives ([2]; injection 12 hrs after lethal irradiation, 5 mice): 0
- Survival rate (%) ([2]; injection 12 hrs before lethal irradiation): 20%
- Survives ([2]; injection 12 hrs before lethal irradiation, 10 mice): 2
- Survival rate (%) ([2]; injection 24 hrs after lethal irradiation): 20%
- Survives ([2]; injection 24 hrs after lethal irradiation, 10 mice): 2
- Survival rate (%) ([2]; injection 24 hrs before lethal irradiation): 100%
- Survives ([2]; injection 24 hrs before lethal irradiation, 10 mice): 10
- Survival rate (%) ([2]; injection 36 hrs after lethal irradiation): 0%
- Survives ([2]; injection 36 hrs after lethal irradiation, 5 mice): 0
- Survival rate (%) ([2]; injection 36 hrs before lethal irradiation): 0%
- Survives ([2]; injection 36 hrs before lethal irradiation, 10 mice): 0
- Survival rate (%) ([2]; injection 48 hrs before lethal irradiation): 0%
- Survives ([2]; injection 48 hrs before lethal irradiation, 10 mice): 0
- best administration time for radioprotection ([2]; lethal dose radiation): 24 hours before or 1 hour post radiation
- optimal radioprotective dose (best survival rate) ([2]; mice, lethal dose radiation): 5 µg/kg
- CFU-S12 activity ([3]; cells isolated the first 7 days post lethal radiation): did not give rise of CFU-S12
- time of full recovered CFU-S12 activity ([3]; lethal radiation, IL-12 24 hours before radiation): 10 days post radiation
